test system: Escherichia coli TOP10; experiment: shrunken log2 fold change of peptide-encoding DNA abundance (4.5 h post-induction vs induction); higher = less antimicrobial activity (less host growth inhibition); conditions: time post-induction: 4.5 h; library: site-saturation at positions 5, 18, 19, 20
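Note: peptides expressed intracellularly from a pBAD plasmid library in pooled LB shake-flask culture, induced with 0.3% L-arabinose, DNA abundance read by NGS, three biological replicates, DESeq2 with apeglm shrinkage.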

| Sequence | shrunken log2 fold change |
| --- | --- |
| RRIRCRPPRLPRPRPRPPGIPRP | 3.39 |
| RRIRQRPPRLPRPRPRPCSNPRP | -0.174 |
| RRIRRRPPRLPRPRPRPKNDPRP | 0.277 |
| RRIRCRPPRLPRPRPRPACKPRP | -0.312 |
| RRIRYRPPRLPRPRPRPWPEPRP | -0.0592 |
| RRIRMRPPRLPRPRPRPLRDPRP | 2.66 |
| RRIRSRPPRLPRPRPRPEMGPRP | 0.128 |
| RRIRGRPPRLPRPRPRPDGQPRP | 0.175 |
| RRIRARPPRLPRPRPRPWSSPRP | -0.656 |
| RRIRDRPPRLPRPRPRPTMHPRP | 0.61 |
| RRIRLRPPRLPRPRPRPWWNPRP | -0.426 |
| RRIRLRPPRLPRPRPRPKCMPRP | -0.152 |
| RRIRKRPPRLPRPRPRPFDQPRP | -0.0318 |
| RRIRCRPPRLPRPRPRPAWKPRP | 0.0545 |
| RRIRHRPPRLPRPRPRPMPMPRP | 0.0326 |
| RRIRRRPPRLPRPRPRPLSIPRP | -0.288 |
| RRIRSRPPRLPRPRPRPACHPRP | -0.0735 |
| RRIRSRPPRLPRPRPRPITFPRP | -0.716 |
| RRIRMRPPRLPRPRPRPIFEPRP | 0.166 |
| RRIRARPPRLPRPRPRPVWRPRP | 0.873 |
| RRIRARPPRLPRPRPRPRFEPRP | 0.401 |
| RRIRHRPPRLPRPRPRPQAQPRP | -0.208 |

| Sequence | shrunken log2 fold change |
| --- | --- |
| RRIRDRPPRLPRPRPRPSADPRP | 0.368 |
| RRIRPRPPRLPRPRPRPHLMPRP | -0.0526 |
| RRIRVRPPRLPRPRPRPVDRPRP | 0.257 |
| RRIRQRPPRLPRPRPRPIAPPRP | 4.03 |
| RRIRSRPPRLPRPRPRPQHPPRP | -0.239 |
| RRIRIRPPRLPRPRPRPTEDPRP | 0.267 |
| RRIRHRPPRLPRPRPRPHSSPRP | -0.0394 |
| RRIRSRPPRLPRPRPRPWFNPRP | -0.227 |
| RRIRPRPPRLPRPRPRPFILPRP | -0.582 |
| RRIRVRPPRLPRPRPRPGYPPRP | -0.343 |
| RRIRGRPPRLPRPRPRPHQSPRP | 0.12 |
| RRIRKRPPRLPRPRPRPHIHPRP | -0.239 |
| RRIRHRPPRLPRPRPRPQKLPRP | -0.52 |
| RRIRPRPPRLPRPRPRPHRYPRP | -0.136 |
| RRIRGRPPRLPRPRPRPFGYPRP | -0.0838 |
| RRIRQRPPRLPRPRPRPMNWPRP | -0.0581 |
| RRIRGRPPRLPRPRPRPDFHPRP | -0.0976 |
| RRIRLRPPRLPRPRPRPGRPPRP | 0.526 |
| RRIRCRPPRLPRPRPRPMDRPRP | -0.0115 |
| RRIRPRPPRLPRPRPRPSQSPRP | -0.0693 |
| RRIRWRPPRLPRPRPRPQAHPRP | 0.00175 |
| RRIRARPPRLPRPRPRPKYAPRP | 0.354 |

| Sequence | shrunken log2 fold change |
| --- | --- |
| RRIRMRPPRLPRPRPRPRTEPRP | 0.718 |
| RRIRYRPPRLPRPRPRPVNIPRP | -0.617 |
| RRIRLRPPRLPRPRPRPGDTPRP | -0.238 |
| RRIRRRPPRLPRPRPRPTFMPRP | 0.284 |
| RRIRRRPPRLPRPRPRPMDKPRP | -0.283 |
| RRIRERPPRLPRPRPRPCLCPRP | -0.134 |
| RRIRLRPPRLPRPRPRPMSKPRP | 0.0198 |
| RRIRIRPPRLPRPRPRPVPVPRP | 0.0789 |
| RRIRSRPPRLPRPRPRPYIVPRP | -0.646 |
| RRIRKRPPRLPRPRPRPHDGPRP | 0.0431 |
| RRIRYRPPRLPRPRPRPALMPRP | -0.226 |
| RRIRNRPPRLPRPRPRPEHYPRP | -0.38 |
| RRIRPRPPRLPRPRPRPCNYPRP | -0.152 |
| RRIRNRPPRLPRPRPRPYNGPRP | 0.0167 |
| RRIRIRPPRLPRPRPRPTWVPRP | -0.022 |
| RRIRWRPPRLPRPRPRPSTFPRP | -0.616 |
| RRIRPRPPRLPRPRPRPDDRPRP | 0.162 |
| RRIRVRPPRLPRPRPRPMGSPRP | -0.000992 |
| RRIRDRPPRLPRPRPRPNLFPRP | 0.0627 |
| RRIRDRPPRLPRPRPRPVSCPRP | 0.342 |
| RRIRLRPPRLPRPRPRPYSTPRP | -1.09 |
| RRIRKRPPRLPRPRPRPVTYPRP | -0.0821 |

| Sequence | shrunken log2 fold change |
| --- | --- |
| RRIRHRPPRLPRPRPRPLLPPRP | -0.0821 |
| RRIRLRPPRLPRPRPRPLSTPRP | -0.471 |
| RRIRARPPRLPRPRPRPMEHPRP | -0.223 |
| RRIRLRPPRLPRPRPRPYPAPRP | -0.368 |
| RRIRMRPPRLPRPRPRPGGGPRP | 1.67 |
| RRIRNRPPRLPRPRPRPIVAPRP | -0.367 |
| RRIRMRPPRLPRPRPRPLCCPRP | 0.104 |
| RRIRRRPPRLPRPRPRPAPRPRP | 0.996 |
| RRIRCRPPRLPRPRPRPDPWPRP | -0.0438 |
| RRIRCRPPRLPRPRPRPIKCPRP | -0.165 |
| RRIRFRPPRLPRPRPRPETQPRP | -0.0941 |
| RRIRIRPPRLPRPRPRPWTLPRP | -0.0808 |
| RRIRWRPPRLPRPRPRPNWIPRP | 0.149 |
| RRIRDRPPRLPRPRPRPPTPPRP | 0.564 |
| RRIRPRPPRLPRPRPRPAAFPRP | 0.207 |
| RRIRGRPPRLPRPRPRPIMIPRP | 0.0216 |
| RRIRTRPPRLPRPRPRPIIYPRP | -0.216 |
| RRIRLRPPRLPRPRPRPNTIPRP | -0.796 |
| RRIRWRPPRLPRPRPRPIHVPRP | -0.0677 |
| RRIRMRPPRLPRPRPRPYDPPRP | -0.328 |
| RRIRQRPPRLPRPRPRPMFVPRP | 0.493 |
| RRIRFRPPRLPRPRPRPNWMPRP | -0.0436 |

| Sequence | shrunken log2 fold change |
| --- | --- |
| RRIRTRPPRLPRPRPRPPHWPRP | 0.333 |
| RRIRARPPRLPRPRPRPDICPRP | 0.307 |
| RRIRSRPPRLPRPRPRPWYYPRP | -0.518 |
| RRIRIRPPRLPRPRPRPILTPRP | -0.854 |
| RRIRYRPPRLPRPRPRPKEYPRP | 0.171 |
| RRIRERPPRLPRPRPRPWGNPRP | -0.377 |
| RRIRYRPPRLPRPRPRPQDSPRP | -0.0125 |
| RRIRCRPPRLPRPRPRPLRGPRP | 0.835 |
| RRIRARPPRLPRPRPRPCPIPRP | -0.244 |
| RRIRNRPPRLPRPRPRPSTAPRP | -0.28 |
| RRIRVRPPRLPRPRPRPHIDPRP | -0.15 |
| RRIRTRPPRLPRPRPRPCHYPRP | -0.253 |
| RRIRCRPPRLPRPRPRPHWGPRP | 0.143 |
| RRIRSRPPRLPRPRPRPFMWPRP | -0.165 |
| RRIRERPPRLPRPRPRPFWDPRP | 0.029 |
| RRIRHRPPRLPRPRPRPCMEPRP | -0.0962 |
| RRIRWRPPRLPRPRPRPYCVPRP | -0.521 |
| RRIRKRPPRLPRPRPRPHQGPRP | 0.0968 |
| RRIRYRPPRLPRPRPRPDHKPRP | -0.308 |
| RRIRIRPPRLPRPRPRPGQNPRP | -0.0607 |
| RRIRTRPPRLPRPRPRPLTWPRP | -0.174 |

Reference: the supplement of paper PMC9112550, “Optimization of the antimicrobial peptide Bac7 by deep mutational scanning” (BMC Biology, 2022)
